Earlier results on one substance are cited in publication PMC3727217.

One may read the pKa as the pH at which an ionisable group is half protonated.

This data set deals with His87 (UniProt position 88, YGATGHPGIIP). The data set is described as follows: NMR. Particulars: not stated (context implies ligand-free FKBP12; ref 47 studied both the absence and presence of ligands).

For the substance “FK506-binding protein FKBP12 (peptidyl-prolyl cis-trans isomerase FKBP1A) (Homo sapiens)”, the pKa is on record as 5.92.
